B1: Telomere length regulation protein TEL2 homolog (Homo sapiens), Q9Y4R8 (parent)
chain: MEPAPSEVRLAVREAIHALSSSEDGGHIFCTLESLKRYLGEMEPPALPREKEEFASAHFSPVLRCLASRLSPAWLELLPHGRLEELWASFFLEGPADQAFLVLMETIEGAAGPSFRLMKMARLLARFLREGRLAVLMEAQCRQQTQPGFILLRETLLGKVVALPDHLGNRLQQENLAEFFPQNYFRLLGEEVVRVLQAVVDSLQGGLDSSVSFVSQVLGKACVHGRQQEILGVLVPRLAALTQGSYLHQRVCWRLVEQVPDRAMEAVLTGLVEAALGPEVLSRLLGNLVVKNKKAQFVMTQKLLFLQSRLTTPMLQSLLGHLAMDSQRRPLLLQVLKELLETWGSSSAIRHTPLPQQRHVSKAVLICLAQLGEPELRDSRDELLASMMAGVKCRLDSSLPPVRRLGMIVAEVVSARIHPEGPPLKFQYEEDELSLELLALASPQPAGDGASEAGTSLVPATAEPPAETPAEIVDGGVPQAQLAGSDSDLDSDDEFVPYDMSGDRELKSSKAPAYVRDCVEALTTSEDIERWEAALRALEGLVYRSPTATREVSVELAKVLLHLEEKTCVVGFAGLRQRALVAVTVTDPAPVADYLTSQFYALNYSLRQRMDILDVLTLAAQELSRPGCLGRTPQPGSPSPNTPCLPEAAVSQPGSAVASDWRVVVEERIRSKTQRLSKGGPRQGPAGSPSRFNSVAGHFFFPLLQRFDRPLVTFDLLGEDQLVLGRLAHTLGALMCLAVNTTVAVAMGKALLEFVWALRFHIDAYVRQGLLSAVSSVLLSLPAARLLEDLMDELLEARSWLADVAEKDPDEDCRTLALRALLLLQRLKNRLLPPASP

Variants of: B1
Conditions: with pihd1_human PIH1D1, Q9NWS0
Chain of pihd1_human PIH1D1, Q9NWS0 (Q9NWS0 whole entry): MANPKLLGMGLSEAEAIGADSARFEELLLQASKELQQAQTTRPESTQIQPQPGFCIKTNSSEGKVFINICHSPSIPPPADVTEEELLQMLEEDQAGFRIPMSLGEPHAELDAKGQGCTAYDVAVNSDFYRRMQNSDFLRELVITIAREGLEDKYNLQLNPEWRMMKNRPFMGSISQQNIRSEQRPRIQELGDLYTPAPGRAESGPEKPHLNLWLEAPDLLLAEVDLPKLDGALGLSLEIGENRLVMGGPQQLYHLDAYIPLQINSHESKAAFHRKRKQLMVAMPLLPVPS

| effect of a mutation on the interaction | Variant |
| --- | --- |
| disrupting interaction strength | D492A;D493A |

Variants of: B1
Conditions: with pihd1_human PIH1D1, Q9NWS0
Remark: another data set of the same source

| effect of a mutation on the interaction | Variant |
| --- | --- |
| disrupting interaction strength | D492A |
| disrupting interaction strength | D490A |
| disrupting interaction strength | D493A |
